Results on 13 molecules are retold here after US20220306729A1 (published 2022).

Test [1] concerns the target T1, DENV1 EDIII, polyhistidine-AviTag, made in HEK-293-6E cells (Dengue virus 1 (NC_001477)).
T1 construct: also called EDIII of DENV1
In words: ELISA on EDIII (Table A). (In general: ELISA stands for enzyme-linked immunosorbent assay.)

Test [2] addresses WNV EDIII, polyhistidine-AviTag (West Nile virus). In words: ELISA on EDIII (Table A).
Test [3] has as its target T2, DENV3 EDIII, polyhistidine-AviTag (Dengue virus 3, UniProt Q6YMS4 575-672).
T2 construct: domain: EDIII
The test can be described thus: cross-reactivity ELISA on EDIII proteins.

Test [4] addresses T3, DENV4 EDIII, polyhistidine-AviTag (Dengue virus 4, UniProt P09866 576-673).
T3 construct: domain: EDIII
In words: cross-reactivity ELISA on EDIII proteins.

Test [5] addresses WNV EDIII, polyhistidine-AviTag (West Nile virus). In words: cross-reactivity ELISA on EDIII proteins.
The target of test [6] is T4, ZIKV envelope domain III ([..]), polyhistidine-AviTag, made in HEK-293-6E cells (Zika virus (KJ776791)).
T4 construct: also called ZEDIII; ZIKV EDIII
The test can be described thus: ELISA on ZIKV EDIII (Table A).

Test [7] addresses ZIKV E protein (African strain MR766) on reporter viral particles (Zika virus, strain MR766, UniProt Q32ZE1 291-790). In words: cell-based or functional assay.
Test [8] concerns the target ZIKV E protein on infectious virus, 2015 Puerto Rican PRVABC59 strain (Zika virus, strain PRVABC59). In words: cell-based or functional assay.
Test [9] concerns the target DENV1 E protein (strain PUO-359) on reporter viral particles or infectious virus (Dengue virus 1, strain PUO-359). The test can be described thus: cell-based or functional assay.

Positions count from the first letter of the chain named.

T1 sequence (P17763 577-674, tags left off): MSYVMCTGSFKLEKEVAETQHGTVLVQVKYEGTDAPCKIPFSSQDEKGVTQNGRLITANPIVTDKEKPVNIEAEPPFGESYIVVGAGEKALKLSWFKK
Chain of ZIKV E protein (African strain MR766) on reporter viral particles (Q32ZE1 291-790 limits assumed): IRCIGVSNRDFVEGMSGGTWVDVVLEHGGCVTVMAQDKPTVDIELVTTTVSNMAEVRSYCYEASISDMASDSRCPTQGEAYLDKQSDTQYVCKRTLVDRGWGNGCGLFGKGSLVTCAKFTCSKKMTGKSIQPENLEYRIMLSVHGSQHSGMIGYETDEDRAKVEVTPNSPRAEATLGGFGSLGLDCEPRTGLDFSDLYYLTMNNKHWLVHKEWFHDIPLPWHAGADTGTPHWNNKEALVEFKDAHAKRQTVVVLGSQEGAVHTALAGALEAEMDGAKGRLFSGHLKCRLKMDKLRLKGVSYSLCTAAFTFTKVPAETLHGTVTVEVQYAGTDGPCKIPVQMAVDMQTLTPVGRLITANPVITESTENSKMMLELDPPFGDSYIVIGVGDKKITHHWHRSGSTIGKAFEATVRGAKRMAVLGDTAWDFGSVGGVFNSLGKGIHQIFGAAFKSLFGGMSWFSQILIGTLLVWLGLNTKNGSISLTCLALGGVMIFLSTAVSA

B1: Z054 (BRA138_94) (antibody, V domains shown)
VH: QLQLQESGPRLVKPSETLFLTCTVSGDSISSSSYFWGWIRQPPGKGLEWIGSISYSGSTYYNPSLKSRVTISVDTSKNQFSLKLSSVTAADTVVYYCAKHLYSSSWNIGSSFDSWGPGTLVTVSS
VL: EIVLTQSPATLSLSPGERATLSCRASQSVSIYLAWYQQKPGQAPRLLIYDASSRATGIPARFSGSGSGTDFTLTISSLEPEDFAVYYCQQRSNWPVYTFGQGTKVEIK
As for B1, the binding result in test [1] and in [2] was “no binding” in each case.

B2: Z044 (BRA138_46) (antibody, V domains shown)
VH: QVQLVQSGAEVKKPGASVKVSCKASGYTFTSTYIHWVRQAPGQGLEWMGIINPSSSNTNYAQKFQGRVTMTRDTSTSTVYMELSSLRSEDTAVYYCARDFGGYSSSSVSDAFDIWGQGTMVTVSS
VL: QSALTQPASVSGSPGQSITISCTGTSSDVGSFNLVSWYQQHPGKAPKLIIYEVSKRPSGVSNRFSGSKSGNTASLTISGLQAEDEVHYYCCSYAGSSRFVFGTGTKVTVL
Regarding B2, the binding result in test [1] and in test [2] was “no binding” in each case.

B3: Z006 (MEX105_42) (antibody, V domains shown)
VH: EVQLLESGGGLVQPGGSLRLSCAASGFTFKNYAMAWVRQAPGKGLEWVSLLYNSEESTYYADSVKGRFTISRDNSKNTLFLQMNRLRVEDTAVYFCVRDRSNGWSSINLWGRGTLVTVSS
VL: DIQMTQSPSTLSASVGDRVTMTCRASQTISGWLAWYQQKPGKAPKLLIYQASRLESGIPSRFSGSGSGTEFTLTISSLQPDDVATYYCQQYSTFWTFGLGTKVEIK
On to B3, for which the binding result in test [3], in [4] and in test [5] was “no binding (tested: 10 µg/ml)” throughout.

B4: Z010 (MEX105_88) (antibody, V domains shown)
VH: EVQLLESGGGLVQPGGSLRLSCAASGFTFSNYAMAWVRQAPGKGLEWVSLIYSGDDSTYYADFVKGRFTISRHNSKNTLSLQMNSLRAEDTAIYYCVKDRGTGWSSIVHWGQGTLVTVSS
VL: B3 VL with M21I, G31N, R53S, I58V, V83F, F94Y, L99Q
Regarding B4, the binding result in test [3], in [4] and in [5] was “no binding (tested: 10 µg/ml)” each time.

B5: Z032 (BRA112_24) (antibody, V domains shown)
VH: EVQLLESGGRLVQPGGSLTLSCAASGFPFSTYAMSWLRQAPGKGLEWVSGITGDSGSTYYAASVKGRFTISRDNSKNTLYLQMNSLTADDTAVYYCAKDRLHSGLGELFSYWGQGTLVTVSS
VL: DIQMTQSPSTLSASVGDRVNITCRASQSINQWLAWYQQKPGKAPKFLMYKASTLETGVPSRFSGSGSGTEFTLTISSLQPDDFATYYCQHYFSYPWTFGQGTKVEIK
On to B5, for which the response in test [6] was half-maximal at 19.5 ng/mL (EC50).

B6: Z035 (BRA112_71) (antibody, V domains shown)
VH: EVQLLESGGGLIQPGGSLRLSCAASGFTFSSYAMSWVRQAPGKGLEWVSGISGSGGASDNGASRYYADSVKGRFSISRDNSKNTVYLQMNSLRAEDTAVYYCAKDRLSGGFGELFQKWGQGTLVTVSS
VL: B5 VL with S12A, N20T, S28N, Q31S, M48I, T56S, V58A, F92Y, W96Y
Take B6: the binding result in test [3], in test [4] and in [5] was “no binding (tested: 10 µg/ml)” throughout.

B7: Z031 (BRA112_46) (antibody, V domains shown)
VH: EVQLLESGGGLVQPGGSLRLSCVASGFTFGSYGMAWVRQAPGKGLEWISSISSIDPSTYYADSVKGRFTVSRDNSENTLYLHMSSLKVEDTAVYFCAKDRLNGGFGELFASWGQGTLVTVSS
VL: DIQMTQSPSTLSASVGDSVTITCRASQSISSWLAWYQQKPGKAPKFLIHKASSLESGIPSRFSGSGSGTEFTLTINNLQPDDFATYYCQHYHSYPWTFGQGTKVEIK
For the molecule B7, the binding result in [3], in test [4] and in test [5] was “no binding (tested: 10 µg/ml)” throughout.

B8: Z021 (MEX84_p4-23) (antibody, V domains shown)
VH: QVQLQESGPGLVKPSETLSLTCTVSGGSIDTYYWSWIRQTPGKGLEWIGCFYYSVDNHFNPSLESRVTISVDTSKNQFSLKMTSMTASDTAVYYCARNQPGGRAFDYWGPGTLVTVSS
VL: EIVLTQSPATLSLSPGQRATLSCRASQSVSNYFAWYQQKPGQAPRLLIYDTSKRATGTPARFSGSGSGTDFTLTISSLEPEDFAVYYCQERNNWPLTWTFGLGTKVEIK
Turning to B8, the “IC50, ZIKV RVPs” value in test [7] was determined as 0.7 ng/mL. The “IC50, plaque reduction neutralization assay (PRNT)” value in [8] amounted to 4 ng/mL. The “IC50, DENV1 neutralization (flow cytometry)” value in test [9] turned out to be 10.1 ng/mL.

B9: Z040 (BRA12_81) (antibody, V domains shown)
VH: EVQLLESGGGLVQPGGSLRLSCAASGFTFSTYAMSWVRQAPGKGLEWVSAISGSGRSTYYADSVKGRFTISRDNSKNTLYLQMNSLRGEDTAVYYCAKSSGGHNWNYVDYYYGMDVWGQGTTVTVSS
VL: DIQLTQSPSFLSASVGDRVTITCRASQGISSYLAWYQQKPGKAPKLLIYAASTLQSGVPSRFSGSGSGTEFTLTISSLQPEDFATYYCQQLNSYPVTFGPGTKVDIK
Turning to B9, the binding result in test [1] and in test [2] was “no binding” throughout.

B10: Z004 (MEX18_89) (antibody, V domains shown)
VH: EVQLLESGGGLVQPGGSLRLTCATSGFTFRDYAMSWVRQAPGKGLEWVSSYSGIDDSTYYADSVKGRFTISRDNSKSTLSLHMNSLRAEDSALYFCAKDRGPRGVGELFDSWGQGTLVTVSS
VL: DIQMTQSPSTLSASVGDRVTITCRASQSISKWLAWYQQKPGKAPKLLIYTTSTLKSGVPSRFSGSGSGTEFTLTISSLQPDDFATYYCQHFYSVPWTFGQGTKVEIK
notes: also called biotin-Z004 (biotinylated form)
Regarding B10, in [8], the “IC50, plaque reduction neutralization test (PRNT)” value came out at 2.2 ng/mL. Besides, in [9], the “IC50, DENV1 luciferase RVPs” value is 1.6 ng/mL. For the same molecule, in [9], the “IC50, flow cytometry using authentic DENV1” value stood at 16.4 ng/mL. The binding result in test [3], in test [4] and in test [5] was “no binding (tested: 10 µg/ml)” each time.

B11: Z001 (MEX18_21) (antibody, V domains shown)
VH: EVQLLESGGGLVQPGGSRRLSCATSGFSFDTYAMSWLRQAPGKGLEWVSSFSGLDDSTYYADSVKGRFTISRDNSKNTLYLQMNSLRAEDTAIYYCAKDRGPRGIGELFDFWGQGTLVTVSS
VL: B10 VL with K31R, T50K, G57E, Y92H
B11: the binding result in test [3], in [4] and in test [5] was “no binding (tested: 10 µg/ml)” each time.

B12: Z028 (MEX84_p4-53) (antibody, V domains shown)
VH: EVQLLESGGGLVQPGGSLRLSCAASGFTFSAYAMSWVRQAPGKGLEWVSSINGHSDSTYFADSVKGRFTISRDNSKNTLYLQMNSLRAEDTALYYCAKDRLREGIGELFHSWGQGTLVTVSS
VL: B5 VL with V15I, N20T, N30T, Q31P, M48I, K50Q, A51T, T53I, T56S, F92H
Take B12: the binding result in test [3], in test [4] and in test [5] was “no binding (tested: 10 µg/ml)” each time.

B13: Z038 (BRA12_2) (antibody, V domains shown)
VH: EVQLLESGGGLVQPGGSLRLSCEASGFTFSNYAMNWVRQAPGKGLEWVSTLGATDNSGDSTYYVESAKGRFTISRDNSKNTLYLQMNSLRVEDTAVYFCAKDRTGNIGAGTGYFDKWGQGTLVTVSS
VL: DIQMTQSPSTLSASVGDRVTITCRASHRISGWLAWYQQKPGKAPKLLIYQASGLESGVPSRFSGSGYGTEFTLTISSLQADDFATYYCQQYNNYPWTFGQGTKVEIK
notes: also called BRA12_02
With B13, the binding result in test [3], in test [4] and in [5] was “no binding (tested: 10 µg/ml)” in each case.
